Results reported in patent publication US20210284747A1 (CAPELLA BIOSCIENCE, published 2021).
Like-named read-outs stand apart in the source and are kept apart here.

T1: Human LIGHT-32L, on II23 cells (human, UniProt O43557 1-240)
T1 construct: also called II23-LIGHT 32L
T1 chain: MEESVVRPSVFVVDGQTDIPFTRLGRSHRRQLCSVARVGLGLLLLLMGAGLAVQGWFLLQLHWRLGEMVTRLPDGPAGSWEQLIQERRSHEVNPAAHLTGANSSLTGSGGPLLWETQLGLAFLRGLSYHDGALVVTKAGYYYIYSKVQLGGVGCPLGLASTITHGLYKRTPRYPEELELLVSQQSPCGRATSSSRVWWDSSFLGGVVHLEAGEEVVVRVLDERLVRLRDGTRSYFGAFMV


What was measured:
[1] = target: T2, Human LIGHT stably expressed on EL4 cells (EL4-LIGHT) (human, UniProt O43557 1-240); test: flow cytometry, against F19 and F23
T2 construct: whole, on cells; also called membrane LIGHT

[2] = target: Full length LIGHT R195A on HEK293FF cells (Homo sapiens (Human), UniProt O43557 1-240); test: flow cytometry, HEK293FF, mAb at EC50
Protocol: (§1) The day of transfection the cells were seeded in a 24-well plate at 0.6×10⁶ cells/well. Lipofectamine 2000 (ThermoFisher scientific), 3 ul, was mixed with 50 μl OptiMEM medium (GIBCO) and then added to 50 μl Opti-MEM medium containing 3 ug plasmid DNA and incubated for 20 min at RT to form DNA-Lipofectamine 2000 complexes which were then added to the HEK293FF cells and incubated at 37° C., 5% CO₂ for 24 hours. For each construct, in duplicate, 0.60×10⁶ cells/well were used in a 96 well round bottom plate. Cells were centrifuged for 3 minutes at 300×g at 4° C., the supernatant discarded and the cells washed with 150 μl FACS buffer (0.5% FBS in phosphate buffered saline). This process was repeated 3 times. […] The wells were washed 3 times as above and 50 μl/well of goat anti-human IgG FITC (1:1500 dilution in FACS buffer, SIGMA F9512-2ML) or goat anti-mouse APC (1/500 dilution in FACS buffer, BDBioscience 550826), as appropriate, was added to the wells and incubated for 30 min at 4° C. protected from the light, with shaking. The cells were then washed as above, resuspended in 100 μl of FACS buffer and binding of the antibodies to the constructs was measured using flow cytometry and a total of 10,000 cells were acquired for each sample. Controls of buffer and secondary antibody only as well as HEK293FF non transfected cells were also used.

[3] = target: Full length LIGHT V196A on HEK293FF cells (Homo sapiens (Human), UniProt O43557 1-240); test: flow cytometry, HEK293FF, mAb at EC50
Protocol: as §1

[4] = target: Full length LIGHT S193A on HEK293FF cells (Homo sapiens (Human), UniProt O43557 1-240); test: flow cytometry, HEK293FF, mAb at EC50
Protocol: as §1

[5] = target: Full length LIGHT A190S on HEK293FF cells (Homo sapiens (Human), UniProt O43557 1-240); test: flow cytometry, HEK293FF, mAb at EC50
Protocol: as §1

[6] = target: Full length LIGHT W197A on HEK293FF cells (Homo sapiens (Human), UniProt O43557 1-240); test: flow cytometry, HEK293FF, mAb at EC50
Protocol: as §1

[7] = target: Full length LIGHT S194A on HEK293FF cells (Homo sapiens (Human), UniProt O43557 1-240); test: flow cytometry, HEK293FF, mAb at EC50
Protocol: as §1

[8] = target: Full length LIGHT S192A on HEK293FF cells (Homo sapiens (Human), UniProt O43557 1-240); test: flow cytometry, HEK293FF, mAb at EC50
Protocol: as §1

[9] = target: Full length LIGHT W198A on HEK293FF cells (Homo sapiens (Human), UniProt O43557 1-240); test: flow cytometry, HEK293FF, mAb at EC50
Protocol: as §1

[10] = target: Full length LIGHT R189A on HEK293FF cells (Homo sapiens (Human), UniProt O43557 1-240); test: flow cytometry, HEK293FF, mAb at EC50
Protocol: as §1

[11] = target: Full length LIGHT G188A on HEK293FF cells (Homo sapiens (Human), UniProt O43557 1-240); test: flow cytometry, HEK293FF, mAb at EC50
Protocol: as §1

[12] = target: Full length LIGHT T191A on HEK293FF cells (Homo sapiens (Human), UniProt O43557 1-240); test: flow cytometry, HEK293FF, mAb at EC50
Protocol: as §1

[13] = target: T2, Human LIGHT stably expressed on EL4 …; test: flow cytometry, EL4-LIGHT cells
Protocol: The EC50 of the 7 mAbs were calculated from binding to EL4-LIGHT cells (FIG. 1). […] Non-linear regression analysis was performed to determine the functional binding affinity measurement or EC50 for each mAb. A range of functional affinities was observed.

[14] = target: T1, Human LIGHT-32L, on II23 cells; test: flow cytometry on II23-LIGHT 32L cells, 4 ug mAb in 100 uL, goat anti-human Fc gamma-PE; signal as % of the commercial anti-LIGHT-PE
Protocol: The cells were suspended at 1×10⁷ cells/ml and 100 uL aliquots were placed into wells of a 96-well plate, the cells spun down and washed in FACS buffer at 1800 rpm for 2 min. The cells were blocked with 1:100 dilution of anti-CD16/CD32 (eBioscience, San Diego, USA) in FACS buffer for 20 min at room temperature and then washed 1× in FACS buffer at 1800 rpm for 2 min. The cells were then resuspended in 100 uL FACS buffer+4 ug anti-membrane LIGHT mAbs or anti-LIGHT-PE (eBioscience, lot: E01621-1632) for 30 min in the dark at room temperature, followed by washing 1× in FACS buffer at 1800 rpm for 2 min and then resuspended in 100 uL FACS buffer plus 1:100 goat anti-human Fcγ-PE secondary antibody or no secondary antibody at 4° C. in the dark for 30 min. The cells were again washed 1× in FACS buffer at 1800 rpm for 2 min and fixed in 200 uL 2% paraformaldehyde overnight at 4° C. and read on a flow cytometer.

[15] = target: LIGHT without residues 81-84, stably expressed on EL4 cells (EL4-NC-LIGHT); test: cell-based or functional assay
[16] = target: T2, Human LIGHT stably expressed on EL4 …; test: flow cytometry, EL4-LIGHT cells; remark: listed apart in the source

Full length LIGHT G188A on HEK293FF cells, sequence (O43557 whole entry G188A): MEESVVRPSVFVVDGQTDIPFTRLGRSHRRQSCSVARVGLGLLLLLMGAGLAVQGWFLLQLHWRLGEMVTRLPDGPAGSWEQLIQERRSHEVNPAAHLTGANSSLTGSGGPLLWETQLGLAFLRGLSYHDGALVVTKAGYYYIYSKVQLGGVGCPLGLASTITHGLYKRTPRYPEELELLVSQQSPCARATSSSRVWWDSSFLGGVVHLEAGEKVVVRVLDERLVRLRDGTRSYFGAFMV
Full length LIGHT W197A on HEK293FF cells, sequence (O43557 whole entry W197A): as the sequence (O43557 whole entry G188A) above, with A188G, W197A counted along it
Full length LIGHT R189A on HEK293FF cells, sequence (O43557 whole entry R189A): as the sequence (O43557 whole entry G188A) above, with A188G, R189A counted along it
Full length LIGHT S194A on HEK293FF cells, sequence (O43557 whole entry S194A): as the sequence (O43557 whole entry G188A) above, with A188G, S194A counted along it
Full length LIGHT W198A on HEK293FF cells, sequence (O43557 whole entry W198A): as the sequence (O43557 whole entry G188A) above, with A188G, W198A counted along it
Full length LIGHT R195A on HEK293FF cells, sequence (O43557 whole entry R195A): as the sequence (O43557 whole entry G188A) above, with A188G, R195A counted along it
Full length LIGHT T191A on HEK293FF cells, sequence (O43557 whole entry T191A): as the sequence (O43557 whole entry G188A) above, with A188G, T191A counted along it
Full length LIGHT S192A on HEK293FF cells, sequence (O43557 whole entry S192A): as the sequence (O43557 whole entry G188A) above, with A188G, S192A counted along it
T2 sequence (O43557 whole entry): as the sequence (O43557 whole entry G188A) above, with A188G counted along it
Full length LIGHT A190S on HEK293FF cells, sequence (O43557 whole entry A190S): as the sequence (O43557 whole entry G188A) above, with A188G, A190S counted along it

| binding ratio, mAb to LIGHT trimer [1] | % of WT binding [2] | % of WT binding [3] | % of WT binding [4] | % of WT binding [5] | % of WT binding [6] | % of WT binding [7] | % of WT binding [8] | % of WT binding [9] | % of WT binding [10] | % of WT binding [11] | % of WT binding [12] | EC50 [13] | binding result [14] | IC50, inhibition of IL-8 secretion, HT-29 + EL4-NC-LIGHT cells [15] | EC50 [16] | Binder |
| --- | --- | --- | --- | --- | --- | --- | --- | --- | --- | --- | --- | --- | --- | --- | --- | --- |
| 1 mAb per LIGHT trimer | 6% | 78% | 0% | 40% | 0% | 0% | 35% | 86% | 0% | 3% | 3% | 0.118 nM | binds | 1.9 nM | – | 3C10 chimeric IgG4 mAb (antibody, V domains shown, Chimeric human IgG4 (S-to-P, L-to-E) with human CL, as m1; also called Parental 3C10) VH: EVQLQQSGAELVRPGASVTLSCKASDYTFTDSEIHWVKQTPVHGLEWIGEIDPETGGTAYNQKFKGKATLTADKSSSTAYMELRSLTSEDSAVYYCSRETDYFFDYWGQGTTLTVSS VL: DVVMTQTPAIMSASPGEKVTMTCSASSSVSYMYWYQQKPGSSPRLLIYDTSNLASGVPVRFSGSGSGTSYSLTISRMEAEDAATYYCQQWSSYPLTFGAGTKLELK |
| – | – | – | – | – | – | – | – | – | – | – | – | – | – | – | 0.23 nM | 3B04_var7 (antibody, V domains shown, Human IgG4 (S241P, L248E, Kabat); also called 3B04VH3VK2) VH: QVQLVQSGAEVKKPGASVKVSCKASGYTFTDYEMHWVRQAPGQGLEWMGEIDPETGDTAYAQKFQGRVTLTADKSTSTAYMEFSSLRSEDTAVYYSCRETDYFFDYWGQGTLVTVSS VL: DIQMTQSPSSLSASVGDRVTITCGASENIYGALNWYQRKQGKAPKLLIYGATNLADGVPSRFSGSGSGRDYTLTISSLQPEDFATYYCQNVLTTPWTFGQGTKLEIKR |
| – | – | – | – | – | – | – | – | – | – | – | – | – | – | – | 0.37 nM | 3B04_var11 (antibody, V domains shown, Human IgG4 (S241P, L248E, Kabat); also called 3B04VH3VK3) VH: QVQLVQSGAEVKKPGASVKVSCKASGYTFTDYEMHWVRQAPGQGLEWMGEIDPETGDTAYAQKFQGRVTLTADKSTSTAYMEFSSLRSEDTAVYYSCRETDYFFDYWGQGTLVTVSS VL: DIQMTQSPSSLSASVGDRVTITCGASENIYGALNWYQQKPGKAPKLLIYGATNLADGVPSRFSGSGSGRDYTLTISSLQPEDFATYYCQNVLTTPWTFGQGTKLEIKR |

The remaining lines, values behind:

| Binder | binding ratio, mAb to LIGHT trimer [1] | % of WT binding [2] | % of WT binding [3] | % of WT binding [4] | % of WT binding [5] | % of WT binding [6] | % of WT binding [7] | % of WT binding [8] | % of WT binding [9] | % of WT binding [10] | % of WT binding [11] | % of WT binding [12] | EC50 [13] | binding result [14] | IC50, inhibition of IL-8 secretion, HT-29 + EL4-NC-LIGHT cells [15] | EC50 [16] |
| --- | --- | --- | --- | --- | --- | --- | --- | --- | --- | --- | --- | --- | --- | --- | --- | --- |
| 3A07 chimeric IgG4 mAb (antibody, V domains shown, Chimeric human IgG4 (S-to-P, L-to-E) with human CL, as m1; also called Parental 3A07) VH: QVQLQQSGAELVRPGAPVTLSCKASDYTFTDSEIHWVKQTPVHGLEWIGEIDPETGGTAYNQKFKGKATLTADKSSSTAYMELRSLTSEDSAVYYCSRETDYFFDYWGQGTTLTVSS VL: ENVLTQSPAIMSASPGEKVTMTCSASSSVSYMYWYQQRPGSSPRLLIYDTSNLASGVPVRFSGSGSGTSYSLTISRMEAEDAATYYCQQWSSYPLTFGSGTKLEIK | 1 mAb per LIGHT trimer | 15% | 77% | 0% | 47% | 1% | 1% | 41% | 82% | 0% | 5% | 4% | 0.133 nM | binds | 2 nM | – |
| 3B04_var3 (antibody, V domains shown, Human IgG4 (S241P, L248E, Kabat); also called 3B04VH3VK1) VH: QVQLVQSGAEVKKPGASVKVSCKASGYTFTDYEMHWVRQAPGQGLEWMGEIDPETGDTAYAQKFQGRVTLTADKSTSTAYMEFSSLRSEDTAVYYSCRETDYFFDYWGQGTLVTVSS VL: DIQMTQSPSSLSASVGDRVTITCGASENIYGALNWYQRKQGKAPQLLIYGATNLADGVSSRFSGSGSGRDYTLTISSLQPEDFATYYCQNVLTTPWTFGQGTKLEIKR | – | – | – | – | – | – | – | – | – | – | – | – | – | – | – | 0.32 nM |
| 2E08 chimeric IgG4 mAb (antibody, V domains shown, Chimeric human IgG4 (S-to-P, L-to-E) with human CL, as m1; also called Parental 2E08) VH: QVQMKESGAELVRPGVSVKISCKGSGYTFTDYAIHWVKQSHAKTLEWIGVISTYYGDASYNQKFKGKATMTVDKSSSTAYMELARLTSDDSAIYYCARSRGEYGNYDAMDYWGQGTSVTVSS VL: DIVLTQSPASLAVSLGQRATISCKASQSVDYDGDSYMNWYQQKPGQPPKLLIYAASNLESGIPARFSGSGSGTDFTLNIHPVEEEDAATYYCQQSNEDPLTFGAGTKLELK | 1 mAb per LIGHT trimer | 43% | 99% | 0% | 93% | 0% | 3% | 122% | 83% | 2% | 44% | 22% | 2.73 nM | binds | 1.8 nM | – |
